Source: patent US20130133108A1, “EXTRACTS FROM PIRIN+ AND PIRIN- PLANTS AND USES THEREOF” (priority 2010, published 2013)

B1: Arabidopsis thaliana Pirin1 (AtPirin1), in vitro-translated (enzyme)
chain: MTYENNSVPRIVIKKVLAKLEKEGEGAVVRNGITKIDQKLLDPFVLLVEFSFSLSAGFPDHPHRGFESVTYMLQGGIIHKDPKGHKGTIQAGDVQWMTAGRGIIHSEFPEEEVNNGLQLWINLPSTEKMTEPKYKELSSLDIPRAEENGVEVKVIAGDSMGIKSPVYTRTPTMFLDFTLKPGSQTHQTVPESWTAFAYIIEGDEGVFGSLNSSAISAHHVVVFGPGDLVSVWNKSTSRSLRFLLIAGEPIGEPVVQCGPFVMNSQAEIDMAFDDYQNAKNGFEMAKC
notes: also called PRN1; Prn1

Columns and labels:
animal cells = conditions: reported, no source named; cited from earlier work
[1] = target: T1, In vitro-translated AtGPA1 pre-incubated with GDPalphaS (permanently inactive conformation) (Arabidopsis thaliana, UniProt P18064 1-383); experiment: in vitro association/activity assay, GPA1:Pirin1 1:1, association inferred from the quercetin absorbance spectrum
T1 construct: Same polypeptide as m2 but a different nucleotide state; also called GPA1-GDPalpha
T1 sequence (looked up): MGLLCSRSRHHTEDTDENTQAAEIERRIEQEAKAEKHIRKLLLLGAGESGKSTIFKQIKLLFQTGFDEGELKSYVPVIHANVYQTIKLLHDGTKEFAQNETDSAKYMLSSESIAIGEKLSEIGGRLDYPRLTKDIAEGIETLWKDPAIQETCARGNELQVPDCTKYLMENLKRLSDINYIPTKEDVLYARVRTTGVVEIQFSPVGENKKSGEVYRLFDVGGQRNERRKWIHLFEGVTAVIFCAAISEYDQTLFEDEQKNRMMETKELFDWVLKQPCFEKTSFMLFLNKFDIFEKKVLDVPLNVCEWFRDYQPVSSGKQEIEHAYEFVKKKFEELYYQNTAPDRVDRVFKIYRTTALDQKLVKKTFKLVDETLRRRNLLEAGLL
Method: (§1) Translated Pirin1 was prepared as described above and in vitro association assays were conducted in assay buffer (pre-incubations included magnesium) at 26° C. (Adams and Jai, J. Biol. Chem. 280(31):28675-82, 2005; Warpeha et al., Plant Physiol. 140:844-55, 2006). GPA1 was incubated with Pirin1 in a 1:1 ratio. “Activated” Pirin1 was achieved by pre-incubation with 100 μM GTPγS (a non-hydrolysable GTP analog). “Inactivated” Pirin1 was achieved by pre-incubation with GDP, or GDPγS (a non-hydrolysable GDP analog). Both pre-incubations occurred overnight in darkness at 10° C.
(§2) The observed AtPirin1 quercetinase activity is regulated through its' interactions with GPA. […] AtGPA1 bound to one of the two non-hydrolyzable analogs was then incubated with AtPirin1 and quercetin in conditions identical to that for FIG. 1.

[2] = target: T2, In vitro-translated AtGPA1 pre-incubated with GTPgammaS (permanently activated conformation) (Arabidopsis thaliana, UniProt P18064 1-383); experiment: in vitro association/activity assay, GPA1:Pirin1 1:1, interaction inferred from loss of quercetinase activity
T2 construct: Same polypeptide as m3 but a different nucleotide state; also called GPA1-GTPgammaS
T2 sequence (looked up): T1 sequence (looked up)
Method: as §1, §2

[3] = Quercetinase (quercetin 2,3-dioxygenase) activity of in vitro-translated AtPirin1, absorbance spectrum; assay type: biochemical, Arabidopsis thaliana
Method: Full-length PIRIN1 template was prepared, amplified and purified by the methods described (Lapik and Kaufman, Plant Cell. 15(7):1578-90, 2003; Warpeha et al., Plant Physiol. 140:844-55, 2006). Pirin1 proteins were individually produced by coupled in vitro transcription/translation using TNT T7 Coupled Wheat Germ Extract System (Promega; Madison, Wis.) as directed and as modified previously (Warpeha et al., Plant Physiol. 140:844-55, 2006). Translated Pirin1 was subsequently incubated with quercetin in complete darkness in a 26° C. circulating water bath for 15 minutes.
The quercetin 2,3-dioxygenase activity of Pirin1 was determined as described in Adams and Jai (J. Biol. Chem. 280(31):28675-82, 2005). Briefly, the quercetin 2,3-dioxygenase activity of pirin wase assayed at 295 K for 5 min in a reaction mixture containing 50 mm NaH2PO4, pH 8.0, 300 mm NaCl, 60 μm quercetin in Me2SO, and 18.5 nm enzyme. Activity was observed by following the decrease in the absorbance maximum for quercetin, which occurs at 384 nm at pH 8.0. The inhibitors kojic acid, sodium diethyldithiocarbamate, and 1,10-phenanthroline monohydrochloride were dissolved in Me2SO and added to the reactions at a final concentration of 50 nm.
as §1

Molecule	concentration considered toxic in animal cells (animal cells)	binding result [1]	binding result [2]	quercetinase activity with activated conformation of AtGPA1 ([3]; AtGPA1 pre-incubated with GTPγS, FIG. 2)	absorbance peak of quercetin with AtPirin1 and inactivated conformation of AtGPA1 ([3]; AtGPA1 pre-incubated with non-hydrolysable GDP analog, FIG. 2)	quercetinase activity (cleavage of quercetin) ([3]; AtPirin1 alone with quercetin, 15 min at 26° C., FIG. 1)	absorbance peak of quercetin after addition of AtPirin1 ([3]; AtPirin1 alone, within 15 min at 26° C., quercetin alone 384 nm)
O=c1c(O)c(-c2ccc(O)c(O)c2)oc2cc(O)cc(O)c12 [quercetin]	above 20 μM	–	–	–	–	–	–
B1	–	binds	binds	no quercetinase activity	405-410 nm	specific cleavage of quercetin	405-410 nm
